{
  "source": "paper PMC4686876",
  "about": "“Architecture of high-affinity unnatural-base DNA aptamers toward pharmaceutical applications”",
  "target": "interferon-gamma (IFNγ) (human, UniProt P01579 24-161)",
  "sequence (P01579 24-161)": "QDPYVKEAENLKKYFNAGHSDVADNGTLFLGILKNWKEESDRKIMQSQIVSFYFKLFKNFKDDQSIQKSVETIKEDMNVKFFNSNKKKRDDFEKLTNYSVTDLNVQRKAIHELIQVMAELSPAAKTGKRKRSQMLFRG",
  "test": "SPR; method inferred; no citation given with the value; SPR (BIAcore T200, biotinylated aptamer on SA chip), 1x PBS (1 mM KH2PO4, 3 mM Na2HPO4) with 205 mM NaCl final, 0.05% NP-40, pH 7.4, 25 °C; IFNγ 1.25-50 nM",
  "conditions": "protein: recombinant; chain copies: 2",
  "data": [
    {"binder": "TCCACTCGGGTCATTTAATAATGTAGGTATGGGCTAGGCAGCTAGTGGA (structured_DNA)", "note": "[aptamer 49A]", "values": [
      {"measurement": "Kd", "result": 7.2, "unit": "nM"}
    ]}
  ]
}
